For assay [1], the target named is IgE antibodies from sera of grass pollen allergy sufferers (human). Description: cell-based or functional assay.
The target is the same in assay [2]. As to the kind of experiment: EAST inhibition test, four individual sera, plate-bound nPhl p 1, inhibitor up to 5 µg/ml.

B1: Phl p 1 NoCys Δ1-6, 115-119, 213-220 (histidine fusion protein) (protein, not shown: small tags and cut ends)
chain: GPNITATYGDKWLDAKSTWYGKPTAAGPKDNGGASGYKDVDKPPFSGMTGSGNTPIFKSGRGSGSSFEIKSTKPEASSGEPVVVHITDDNEEPIAAYHFDLSGIAFGSDEQKLRSAGEVEIQFRRVKSKYPEGTKVTFHVEKGSNPNYLALLVKFVAGDGDVVAVDIKEKGKDKWIALKESWGAIWRIDTPEVLKGPFTVRGEAKDVIPEGWKADTAYESK
The molecule B1 displayed an allergenic efficacy from A50 values, basophil activation test (CD203c), against reference nPhl p 1 in assay [1] of over 1000 fold.

B2: Phl p 1 NoCys Δ213-220 (histidine fusion protein) (protein, not shown: small tags and cut ends)
chain: IPKVPPGPNITATYGDKWLDAKSTWYGKPTAAGPKDNGGASGYKDVDKPPFSGMTGSGNTPIFKSGRGSGSSFEIKSTKPEASSGEPVVVHITDDNEEPIAAYHFDLSGIAFGSMAKKGDEQKLRSAGEVEIQFRRVKSKYPEGTKVTFHVEKGSNPNYLALLVKFVAGDGDVVAVDIKEKGKDKWIALKESWGAIWRIDTPEVLKGPFTVRGEAKDVIPEGWKADTAYESK
As to B2, the allergenic efficacy from A50 values, basophil activation test (CD203c), against reference nPhl p 1 in assay [1] lay in the range of 100 to 1000 fold.

B3: Phl p 1 NoCys (histidine fusion protein) (protein, not shown: small tags and cut ends)
chain: IPKVPPGPNITATYGDKWLDAKSTWYGKPTAAGPKDNGGASGYKDVDKPPFSGMTGSGNTPIFKSGRGSGSSFEIKSTKPEASSGEPVVVHITDDNEEPIAAYHFDLSGIAFGSMAKKGDEQKLRSAGEVEIQFRRVKSKYPEGTKVTFHVEKGSNPNYLALLVKFVAGDGDVVAVDIKEKGKDKWIALKESWGAIWRIDTPEVLKGPFTVRYTTEGGTKGEAKDVIPEGWKADTAYESK
As to B3, the percent of the maximum inhibitory action of nPhl p 1 in assay [2] was 20 to 50%.

For the origin of these results see patent US20080267985A1.
